{
  "source": "paper PMC4604684",
  "about": "“Characterisation of the Cullin-3 mutation that causes a severe form of familial hypertension and hyperkalaemia” (EMBO Molecular Medicine, 2015)",
  "binders": {"B1": {"name": "GST-CAND1 (natural protein, human, UniProt Q86VP6-1 1-1230, looked up)", "chain": "MASASYHISNLLEKMTSSDKDFRFMATNDLMTELQKDSIKLDDDSERKVVKMILKLLEDKNGEVQNLAVKCLGPLVSKVKEYQVETIVDTLCTNMLSDKEQLRDISSIGLKTVIGELPPASSGSALAANVCKKITGRLTSAIAKQEDVSVQLEALDIMADMLSRQGGLLVNFHPSILTCLLPQLTSPRLAVRKRTIIALGHLVMSCGNIVFVDLIEHLLSELSKNDSMSTTRTYIQCIAAISRQAGHRIGEYLEKIIPLVVKFCNVDDDELREYCIQAFESFVRRCPKEVYPHVSTIINICLKYLTYDPNYNYDDEDEDENAMDADGGDDDDQGSDDEYSDDDDMSWKVRRAAAKCLDAVVSTRHEMLPEFYKTVSPALISRFKEREENVKADVFHAYLSLLKQTRPVQSWLCDPDAMEQGETPLTMLQSQVPNIVKALHKQMKEKSVKTRQCCFNMLTELVNVLPGALTQHIPVLVPGIIFSLNDKSSSSNLKIDALSCLYVILCNHSPQVFHPHVQALVPPVVACVGDPFYKITSEALLVTQQLVKVIRPLDQPSSFDATPYIKDLFTCTIKRLKAADIDQEVKERAISCMGQIICNLGDNLGSDLPNTLQIFLERLKNEITRLTTVKALTLIAGSPLKIDLRPVLGEGVPILASFLRKNQRALKLGTLSALDILIKNYSDSLTAAMIDAVLDELPPLISESDMHVSQMAISFLTTLAKVYPSSLSKISGSILNELIGLVRSPLLQGGALSAMLDFFQALVVTGTNNLGYMDLLRMLTGPVYSQSTALTHKQSYYSIAKCVAALTRACPKEGPAVVGQFIQDVKNSRSTDSIRLLALLSLGEVGHHIDLSGQLELKSVILEAFSSPSEEVKSAASYALGSISVGNLPEYLPFVLQEITSQPKRQYLLLHSLKEIISSASVVGLKPYVENIWALLLKHCECAEEGTRNVVAECLGKLTLIDPETLLPRLKGYLISGSSYARSSVVTAVKFTISDHPQPIDPLLKNCIGDFLKTLEDPDLNVRRVALVTFNSAAHNKPSLIRDLLDTVLPHLYNETKVRKELIREVEMGPFKHTVDDGLDIRKAAFECMYTLLDSCLDRLDIFEFLNHVEDGLKDHYDIKMLTFLMLVRLSTLCPSAVLQRLDRLVEPLRATCTTKVKANSVKQEFEKQDELKRSAMRAVAALLTIPEAEKSPLMSEFQSQISSNPELAAIFESIQKDSSSTNLESMDTS", "notes": "CAND1, human, ORF amplified from an EST IMAGE clone and subcloned into pGEX6P-2; source: E. coli BL21, purified (glutathione resin, eluted with glutathione, dialysed); not shown: GST, N-terminal, kept"}},
  "target": "T1, CUL3^WT-RBX1 complex, purified, tag cleaved (human, UniProt Q13618-1 1-768; P62877 1-108)",
  "T1 construct": "Cullin-3, human, wild type; RBX1, human, untagged; The pull-down sections call this protein only CUL3^WT; also called CUL3-RBX1; not shown: DAC, N-terminal, cleaved",
  "T1 sequence (Q13618 whole entry, chain 1 of 2)": "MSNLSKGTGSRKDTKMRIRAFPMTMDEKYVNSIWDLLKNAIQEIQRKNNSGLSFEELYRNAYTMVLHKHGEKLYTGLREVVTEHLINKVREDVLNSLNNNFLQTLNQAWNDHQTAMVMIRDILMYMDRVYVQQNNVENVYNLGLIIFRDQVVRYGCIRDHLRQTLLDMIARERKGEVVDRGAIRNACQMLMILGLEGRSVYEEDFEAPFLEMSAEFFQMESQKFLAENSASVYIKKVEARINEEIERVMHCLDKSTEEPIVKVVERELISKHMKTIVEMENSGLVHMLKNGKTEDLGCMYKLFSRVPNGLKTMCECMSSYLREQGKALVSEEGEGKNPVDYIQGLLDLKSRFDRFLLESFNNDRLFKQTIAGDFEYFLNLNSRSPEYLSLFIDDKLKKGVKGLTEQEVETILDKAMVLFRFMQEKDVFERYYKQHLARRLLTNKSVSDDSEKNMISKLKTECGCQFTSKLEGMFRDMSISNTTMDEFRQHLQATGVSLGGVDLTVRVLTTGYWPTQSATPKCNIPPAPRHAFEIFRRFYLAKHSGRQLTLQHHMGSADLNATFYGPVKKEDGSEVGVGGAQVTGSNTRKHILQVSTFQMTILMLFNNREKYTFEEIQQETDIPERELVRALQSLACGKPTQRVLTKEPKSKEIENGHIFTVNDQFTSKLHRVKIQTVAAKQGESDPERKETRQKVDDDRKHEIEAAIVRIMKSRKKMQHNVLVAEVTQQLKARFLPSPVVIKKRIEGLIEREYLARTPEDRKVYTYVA",
  "T1 sequence (P62877 whole entry, chain 2 of 2)": "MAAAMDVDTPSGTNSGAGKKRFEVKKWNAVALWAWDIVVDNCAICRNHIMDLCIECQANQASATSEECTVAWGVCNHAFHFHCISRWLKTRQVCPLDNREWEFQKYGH",
  "test": "pull-down; purified GST-CAND1 or GST on glutathione-sepharose; incubated with purified CUL3^WT or CUL3^Δ403–459 at 4°C for 1 h; washed thrice; SDS-PAGE, Coomassie",
  "settings": "both partners purified",
  "data": [
    {"binder": "B1", "values": [
      {"measurement": "binding result", "result": "binds"}
    ]}
  ]
}
